Here are results for one molecule from publication PMC4357725 (Nucleic Acids Research, 2015).

The assay has as its target T1, ϕ29 DNA polymerase, wild type (bacteriophage ϕ29, UniProt P03680 1-575).
T1 construct: DNA polymerase of bacteriophage ϕ29, wild type; 66 kDa; also called viral DNA polymerase
T1 sequence (looked up): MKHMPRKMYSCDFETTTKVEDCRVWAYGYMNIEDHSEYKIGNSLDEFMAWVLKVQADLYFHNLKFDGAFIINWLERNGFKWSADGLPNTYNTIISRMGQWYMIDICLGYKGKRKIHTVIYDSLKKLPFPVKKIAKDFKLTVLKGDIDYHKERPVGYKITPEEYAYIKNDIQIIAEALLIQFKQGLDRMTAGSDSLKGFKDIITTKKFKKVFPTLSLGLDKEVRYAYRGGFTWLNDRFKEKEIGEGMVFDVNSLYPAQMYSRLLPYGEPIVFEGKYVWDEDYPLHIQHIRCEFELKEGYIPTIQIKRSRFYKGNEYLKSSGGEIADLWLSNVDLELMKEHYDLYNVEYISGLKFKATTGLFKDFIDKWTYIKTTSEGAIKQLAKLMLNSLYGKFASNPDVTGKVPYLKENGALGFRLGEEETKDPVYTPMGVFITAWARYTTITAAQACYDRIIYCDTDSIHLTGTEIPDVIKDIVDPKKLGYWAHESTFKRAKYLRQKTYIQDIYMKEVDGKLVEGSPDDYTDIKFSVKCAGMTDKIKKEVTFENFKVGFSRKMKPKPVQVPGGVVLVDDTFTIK
Kind of assay: co-sedimentation; glycerol gradient sedimentation of DNA polymerase with TP N-terminal mutants (Supplementary Figure S2). To be noted: both partners purified.

B1: ϕ29 TP mutant K32A/K33A/K34A (natural protein, bacteriophage ϕ29, UniProt P03681 1-266, looked up)
chain: MARSPRIRIKDNDKAEYARLVKNTKAKIARTAAAYGVDLTAEIDIPDLDSFETRAQFNKWKEQASSFTNRANMRYQFEKNAYGVVASKAKIAEIERNTKEVQRLVDEKIKAMKDKEYYAGGKPQGTIEQRIAMTSPAHVTGINRPHDFDFSKVRSYSRLRTLEESMEMRTDPQYYEKKMIQLQLNFIKSVEGSFNSFDAADELIEELKKIPPDDFYELFLRISEISFEEFDSEGNTVENVEGNVYKILSYLEQYRRGDFDLSLKGF
notes: terminal protein (TP) of bacteriophage ϕ29 with K32A, K33A and K34A
As to B1, the binding result is on record as “binds”.
